We go through four sequences from patent US10500249B2, “Compositions and methods for preventing or treating diseases, conditions, or processes characterized by aberrant fibroblast proliferation and extracellular matrix deposition” (MOERAE MATRIX, INC., priority 2014, dated 2019).

Common to all, as to experiment: Kinase Profiling Assay
Common to all, as to assay type: biochemical
Conditions in all cases: 100 μM

One assay deals with T1, ASK1 (h) (Homo sapiens, UniProt Q99683).
T1 sequence (Q99683 1-1374): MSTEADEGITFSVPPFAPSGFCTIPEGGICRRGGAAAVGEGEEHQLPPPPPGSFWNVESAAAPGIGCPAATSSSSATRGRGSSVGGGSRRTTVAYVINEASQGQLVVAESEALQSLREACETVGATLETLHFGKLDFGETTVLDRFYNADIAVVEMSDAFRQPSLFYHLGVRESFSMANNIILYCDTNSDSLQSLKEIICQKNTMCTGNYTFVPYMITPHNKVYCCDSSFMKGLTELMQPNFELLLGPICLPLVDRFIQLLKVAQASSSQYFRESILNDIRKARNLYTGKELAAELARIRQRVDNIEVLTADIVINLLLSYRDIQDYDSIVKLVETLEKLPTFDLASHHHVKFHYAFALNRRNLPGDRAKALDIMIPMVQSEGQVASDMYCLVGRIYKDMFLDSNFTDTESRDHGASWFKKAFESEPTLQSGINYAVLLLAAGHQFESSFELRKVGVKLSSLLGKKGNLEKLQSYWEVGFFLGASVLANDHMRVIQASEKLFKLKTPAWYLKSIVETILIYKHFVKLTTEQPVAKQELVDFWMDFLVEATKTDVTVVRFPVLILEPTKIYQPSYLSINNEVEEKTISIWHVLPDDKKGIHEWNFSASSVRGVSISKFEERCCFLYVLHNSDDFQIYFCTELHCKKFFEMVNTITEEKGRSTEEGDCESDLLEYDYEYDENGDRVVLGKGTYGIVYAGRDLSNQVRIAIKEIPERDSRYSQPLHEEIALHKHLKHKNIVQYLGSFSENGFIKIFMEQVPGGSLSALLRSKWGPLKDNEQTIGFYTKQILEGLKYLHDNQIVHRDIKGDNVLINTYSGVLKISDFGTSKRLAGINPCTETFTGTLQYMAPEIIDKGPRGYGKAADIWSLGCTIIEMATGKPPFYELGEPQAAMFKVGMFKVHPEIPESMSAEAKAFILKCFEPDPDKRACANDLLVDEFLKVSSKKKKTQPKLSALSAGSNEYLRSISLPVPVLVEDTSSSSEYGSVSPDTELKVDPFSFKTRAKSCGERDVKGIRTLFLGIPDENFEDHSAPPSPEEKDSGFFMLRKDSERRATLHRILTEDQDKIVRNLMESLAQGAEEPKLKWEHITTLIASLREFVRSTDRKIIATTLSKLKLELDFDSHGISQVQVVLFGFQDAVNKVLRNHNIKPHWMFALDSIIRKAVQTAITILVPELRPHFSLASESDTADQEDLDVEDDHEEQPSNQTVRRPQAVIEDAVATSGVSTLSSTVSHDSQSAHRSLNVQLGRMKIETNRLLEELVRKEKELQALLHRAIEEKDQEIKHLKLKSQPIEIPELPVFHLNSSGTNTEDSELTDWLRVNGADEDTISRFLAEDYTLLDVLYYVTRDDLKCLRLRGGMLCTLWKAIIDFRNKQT
The method, boiled down:
(§1)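 Radiometric filter-binding format: cationic substrate takes up labeled phosphate from ATP unless the inhibitor peptide blocks the kinase. Substrate bound to an anionic filter, scintillation-counted, normalized to 100% activity control. Duplicates; part of a 266-kinase selectivity panel for MK2 peptides.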

The target of a further assay is Abl (Q252H) (h) (Homo sapiens, UniProt P00519, Q252H). The method in brief:
as §1

For another assay, the target named is T2, DDR2 (h) (Homo sapiens, UniProt Q16832).
T2 construct: purchased Millipore
T2 sequence (Q16832 22-855): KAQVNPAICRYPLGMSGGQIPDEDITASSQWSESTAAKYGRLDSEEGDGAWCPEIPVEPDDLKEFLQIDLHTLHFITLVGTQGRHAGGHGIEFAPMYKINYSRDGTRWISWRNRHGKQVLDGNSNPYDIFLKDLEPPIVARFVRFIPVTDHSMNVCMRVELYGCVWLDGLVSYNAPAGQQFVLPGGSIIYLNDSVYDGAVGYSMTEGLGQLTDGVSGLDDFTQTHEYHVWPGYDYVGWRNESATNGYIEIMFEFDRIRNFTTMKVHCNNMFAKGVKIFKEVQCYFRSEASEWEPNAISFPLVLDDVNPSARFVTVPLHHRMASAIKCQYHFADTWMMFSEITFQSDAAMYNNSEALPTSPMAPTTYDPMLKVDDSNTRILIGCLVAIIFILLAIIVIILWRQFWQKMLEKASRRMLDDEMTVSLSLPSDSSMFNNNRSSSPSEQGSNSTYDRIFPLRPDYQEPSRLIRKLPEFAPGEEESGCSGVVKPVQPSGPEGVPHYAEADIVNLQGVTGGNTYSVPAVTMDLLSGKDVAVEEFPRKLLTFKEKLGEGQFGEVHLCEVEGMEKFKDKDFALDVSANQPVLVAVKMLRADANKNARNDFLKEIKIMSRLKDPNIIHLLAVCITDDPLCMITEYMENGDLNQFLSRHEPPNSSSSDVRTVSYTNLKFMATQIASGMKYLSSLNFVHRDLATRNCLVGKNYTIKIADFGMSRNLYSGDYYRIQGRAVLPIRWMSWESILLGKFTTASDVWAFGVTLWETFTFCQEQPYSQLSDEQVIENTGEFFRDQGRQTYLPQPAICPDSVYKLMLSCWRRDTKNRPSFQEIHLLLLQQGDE
The method in brief: as §1

The target in a further assay is T3, JAK2 (h) (Homo sapiens, UniProt O60674).
T3 construct: purchased Millipore
The method in brief: as §1

A further assay concerns the target JNK3 (h) (Homo sapiens, UniProt P53779). The method, boiled down:
as §1

In another assay the target is T4, MSK2 (h) (Homo sapiens, UniProt O75676).
T4 construct: purchased Millipore
The method in brief:
as §1

Another assay concerns the target STK33 (h) (Homo sapiens, UniProt Q9BYT3). The method in brief: as §1
A further assay concerns the target WNK3 (h) (Homo sapiens, UniProt Q9BYP7). The method in brief: as §1
The target of another assay is SRPK2 (h) (Homo sapiens, UniProt P78362). The method, boiled down:
as §1

Chain of WNK3 (h) (Q9BYP7 whole entry): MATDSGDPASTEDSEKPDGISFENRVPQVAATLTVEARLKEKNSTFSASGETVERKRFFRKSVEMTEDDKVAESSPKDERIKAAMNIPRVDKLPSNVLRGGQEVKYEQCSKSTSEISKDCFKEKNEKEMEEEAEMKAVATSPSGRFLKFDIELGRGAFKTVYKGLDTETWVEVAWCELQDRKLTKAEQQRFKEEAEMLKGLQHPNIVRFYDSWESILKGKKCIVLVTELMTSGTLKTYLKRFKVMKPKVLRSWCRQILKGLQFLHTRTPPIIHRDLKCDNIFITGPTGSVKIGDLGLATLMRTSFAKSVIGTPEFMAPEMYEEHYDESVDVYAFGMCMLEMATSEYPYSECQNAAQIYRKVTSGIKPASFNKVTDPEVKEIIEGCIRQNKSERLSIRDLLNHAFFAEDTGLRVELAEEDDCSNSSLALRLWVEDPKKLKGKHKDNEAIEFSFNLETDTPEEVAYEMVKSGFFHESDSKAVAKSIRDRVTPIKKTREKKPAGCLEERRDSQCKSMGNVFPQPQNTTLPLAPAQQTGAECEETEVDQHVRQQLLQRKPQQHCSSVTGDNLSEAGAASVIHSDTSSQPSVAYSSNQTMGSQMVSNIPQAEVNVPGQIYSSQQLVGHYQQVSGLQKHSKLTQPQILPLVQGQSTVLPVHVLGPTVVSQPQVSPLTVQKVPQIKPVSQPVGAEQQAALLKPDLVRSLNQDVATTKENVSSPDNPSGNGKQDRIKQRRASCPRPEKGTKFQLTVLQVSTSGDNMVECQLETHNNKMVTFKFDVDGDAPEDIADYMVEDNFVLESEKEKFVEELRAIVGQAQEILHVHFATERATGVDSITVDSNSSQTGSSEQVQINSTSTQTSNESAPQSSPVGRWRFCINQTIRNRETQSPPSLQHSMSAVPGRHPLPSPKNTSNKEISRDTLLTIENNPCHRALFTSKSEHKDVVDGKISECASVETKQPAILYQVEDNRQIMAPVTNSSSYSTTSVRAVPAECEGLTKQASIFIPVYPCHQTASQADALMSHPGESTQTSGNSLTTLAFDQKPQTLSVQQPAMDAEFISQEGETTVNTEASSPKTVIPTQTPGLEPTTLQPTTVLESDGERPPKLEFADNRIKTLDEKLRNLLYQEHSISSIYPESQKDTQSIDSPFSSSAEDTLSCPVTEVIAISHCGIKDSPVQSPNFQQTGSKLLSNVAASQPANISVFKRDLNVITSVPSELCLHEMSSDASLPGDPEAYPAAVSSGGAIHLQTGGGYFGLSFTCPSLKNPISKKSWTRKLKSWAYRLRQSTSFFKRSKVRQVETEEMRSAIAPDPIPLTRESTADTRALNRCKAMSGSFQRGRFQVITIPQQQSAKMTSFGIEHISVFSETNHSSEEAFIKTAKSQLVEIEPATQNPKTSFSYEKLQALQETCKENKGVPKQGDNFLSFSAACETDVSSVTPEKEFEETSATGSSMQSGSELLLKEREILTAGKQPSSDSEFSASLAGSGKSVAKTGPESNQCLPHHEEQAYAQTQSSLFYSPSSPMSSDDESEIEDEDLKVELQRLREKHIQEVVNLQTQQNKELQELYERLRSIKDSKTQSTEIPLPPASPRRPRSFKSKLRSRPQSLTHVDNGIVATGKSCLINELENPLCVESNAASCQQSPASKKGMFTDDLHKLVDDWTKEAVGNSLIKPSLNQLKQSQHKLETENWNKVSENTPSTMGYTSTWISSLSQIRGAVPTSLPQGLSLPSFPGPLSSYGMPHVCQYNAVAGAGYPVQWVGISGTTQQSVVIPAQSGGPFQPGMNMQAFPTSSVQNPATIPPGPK
T3 sequence (O60674 whole entry): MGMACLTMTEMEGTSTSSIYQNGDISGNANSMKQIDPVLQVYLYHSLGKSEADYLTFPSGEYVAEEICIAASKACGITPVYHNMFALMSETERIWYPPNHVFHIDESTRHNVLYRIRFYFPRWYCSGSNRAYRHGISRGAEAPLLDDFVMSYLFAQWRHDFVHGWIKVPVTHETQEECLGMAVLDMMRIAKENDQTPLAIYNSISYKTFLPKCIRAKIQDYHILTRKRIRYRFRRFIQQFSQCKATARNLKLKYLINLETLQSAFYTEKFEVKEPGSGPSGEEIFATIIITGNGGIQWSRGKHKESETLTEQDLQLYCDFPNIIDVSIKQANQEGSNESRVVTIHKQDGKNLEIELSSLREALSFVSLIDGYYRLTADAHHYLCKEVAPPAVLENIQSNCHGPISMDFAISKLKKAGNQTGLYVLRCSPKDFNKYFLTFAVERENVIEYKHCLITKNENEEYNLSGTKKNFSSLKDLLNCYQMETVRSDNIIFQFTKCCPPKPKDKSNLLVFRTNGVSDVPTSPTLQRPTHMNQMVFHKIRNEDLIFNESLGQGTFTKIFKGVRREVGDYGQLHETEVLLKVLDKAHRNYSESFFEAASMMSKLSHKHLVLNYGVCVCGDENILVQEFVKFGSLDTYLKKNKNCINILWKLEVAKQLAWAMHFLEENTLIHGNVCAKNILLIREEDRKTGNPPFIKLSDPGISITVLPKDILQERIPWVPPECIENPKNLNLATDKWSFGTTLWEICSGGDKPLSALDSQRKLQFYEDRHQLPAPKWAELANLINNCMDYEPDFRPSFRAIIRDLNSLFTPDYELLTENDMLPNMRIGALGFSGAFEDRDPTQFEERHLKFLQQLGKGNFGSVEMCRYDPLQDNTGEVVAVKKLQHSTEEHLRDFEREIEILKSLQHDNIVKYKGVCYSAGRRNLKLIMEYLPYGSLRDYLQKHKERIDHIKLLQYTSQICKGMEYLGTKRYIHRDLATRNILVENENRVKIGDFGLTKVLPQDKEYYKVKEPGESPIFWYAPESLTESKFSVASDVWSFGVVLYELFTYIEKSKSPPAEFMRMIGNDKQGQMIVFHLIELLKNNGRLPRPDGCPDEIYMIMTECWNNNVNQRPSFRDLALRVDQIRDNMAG
Chain of SRPK2 (h) (P78362 whole entry): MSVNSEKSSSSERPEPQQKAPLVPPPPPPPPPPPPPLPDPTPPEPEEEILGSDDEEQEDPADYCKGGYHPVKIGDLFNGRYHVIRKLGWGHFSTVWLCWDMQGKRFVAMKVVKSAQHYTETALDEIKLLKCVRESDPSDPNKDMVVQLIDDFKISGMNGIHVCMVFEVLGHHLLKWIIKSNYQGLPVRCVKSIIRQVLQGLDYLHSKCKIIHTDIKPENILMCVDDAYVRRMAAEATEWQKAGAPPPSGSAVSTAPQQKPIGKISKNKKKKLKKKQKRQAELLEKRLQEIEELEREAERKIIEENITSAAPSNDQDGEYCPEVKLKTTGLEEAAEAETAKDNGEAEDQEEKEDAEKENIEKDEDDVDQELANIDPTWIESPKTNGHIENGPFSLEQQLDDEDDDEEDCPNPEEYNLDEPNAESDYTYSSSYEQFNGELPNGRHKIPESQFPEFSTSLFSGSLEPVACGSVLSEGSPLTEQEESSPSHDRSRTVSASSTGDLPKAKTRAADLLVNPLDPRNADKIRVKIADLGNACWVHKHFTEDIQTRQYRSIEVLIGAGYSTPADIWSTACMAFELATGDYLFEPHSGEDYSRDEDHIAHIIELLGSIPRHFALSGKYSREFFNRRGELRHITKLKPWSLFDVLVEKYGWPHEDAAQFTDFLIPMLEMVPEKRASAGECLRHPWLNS
Chain of JNK3 (h) (P53779 whole entry): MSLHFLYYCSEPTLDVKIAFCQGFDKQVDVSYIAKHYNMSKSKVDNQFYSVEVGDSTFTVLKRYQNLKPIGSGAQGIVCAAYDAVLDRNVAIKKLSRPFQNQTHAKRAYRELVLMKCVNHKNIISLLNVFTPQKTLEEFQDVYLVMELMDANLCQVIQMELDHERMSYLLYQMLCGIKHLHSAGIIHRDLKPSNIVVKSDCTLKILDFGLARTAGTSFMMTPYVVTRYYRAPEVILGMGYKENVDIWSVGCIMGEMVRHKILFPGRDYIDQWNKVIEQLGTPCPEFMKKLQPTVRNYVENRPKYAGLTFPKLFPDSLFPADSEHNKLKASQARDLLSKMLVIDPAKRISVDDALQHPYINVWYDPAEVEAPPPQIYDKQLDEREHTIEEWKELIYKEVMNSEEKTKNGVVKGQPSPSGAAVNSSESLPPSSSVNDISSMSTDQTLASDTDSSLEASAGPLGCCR
Chain of STK33 (h) (Q9BYT3 whole entry): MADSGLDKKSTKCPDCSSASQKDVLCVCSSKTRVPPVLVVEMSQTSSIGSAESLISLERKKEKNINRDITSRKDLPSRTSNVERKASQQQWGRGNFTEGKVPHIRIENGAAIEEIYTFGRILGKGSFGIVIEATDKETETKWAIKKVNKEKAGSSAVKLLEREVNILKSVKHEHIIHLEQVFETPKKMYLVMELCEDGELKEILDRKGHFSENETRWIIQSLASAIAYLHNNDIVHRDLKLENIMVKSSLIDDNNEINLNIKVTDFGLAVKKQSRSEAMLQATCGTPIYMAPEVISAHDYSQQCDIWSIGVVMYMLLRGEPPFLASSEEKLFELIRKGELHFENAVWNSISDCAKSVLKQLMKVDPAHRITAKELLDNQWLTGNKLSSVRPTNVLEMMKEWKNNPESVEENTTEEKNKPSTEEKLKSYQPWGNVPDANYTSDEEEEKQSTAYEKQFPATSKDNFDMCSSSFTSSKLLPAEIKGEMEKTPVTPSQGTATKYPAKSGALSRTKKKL

With FAKLAARLYRKALARQLGVAA [MMI-0300], the “% activity” value came out at 80% with ASK1 (h); 82% with Abl (Q252H) (h); 94% with DDR2 (h); 133% with JAK2 (h); 89% with JNK3 (h); 56% with MSK2 (h). Moreover, the entries for the “% activity” value in the assay with STK33 (h) and with WNK3 (h) were 45% and 77%, respectively.
Consider KAFAKLAARLYRKALARQLGVAA [MMI-0400], for which the “% activity” value in the assay with ASK1 (h) is on record as 69%; with Abl (Q252H) (h) it was 98%; with DDR2 (h), 95%; with JNK3 (h), 70%; with MSK2 (h), 52%; with SRPK2 (h) it was 97%. The “% activity” value with STK33 (h) amounted to 52%; in the assay with WNK3 (h), 74%.
Take “YARAAARQARAKALNRQLGVA (Mammalian) [MMI-0200]”: the “% activity” value was found to be 101% in the assay with ASK1 (h); 131% in the assay with JAK2 (h); 90% with JNK3 (h); 88% with MSK2 (h); 100% with SRPK2 (h); 98% with STK33 (h). Moreover, the “% activity” value in the assay with WNK3 (h) is given as 97%.
Regarding “HRRIKAWLKKIKALARQLGVAA (Mammalian) [MMI-0500]”, the “% activity” value is −4% in the assay with ASK1 (h); 40% in the assay with Abl (Q252H) (h); 79% in the assay with DDR2 (h); 49% with JAK2 (h); 171% with JNK3 (h); 14% with MSK2 (h). In addition, the “% activity” value is given as 80% with SRPK2 (h), 16% with STK33 (h) and 9% with WNK3 (h).
